{"source": "patent US20130172283A1", "about": "“LYOPHILIZED FORMULATION OF PECTIN-ADRIAMYCIN CONJUGATE AND PREPARATION METHOD THEREOF” (CHONGQING LUMMY PHARMACEUTICAL CO., LTD., priority 2010, published 2013)", "key": {"[1]": {"experiment": "solubility tests of PAC", "format": "physicochemical", "details": "repeated solubility tests", "text": "Insoluble drugs have two major problems in clinical application, one problem is low bioavailability due to low solubility of the drugs, and the other problem is that conventional formulation methods have certain restriction on application of the insoluble drugs."}, "[2]": {"experiment": "monitoring of drug loading rate in long-term storage (UV absorbance at 480 nm)", "format": "physicochemical", "details": "initial, bulk drug", "method": "10.7 mg adriamycin hydrochloride was precisely weighed and placed in a 100 mL volumetric flask, diluted with sterile water for injection to volume as stock solution, and underwent ultrasonic treatment for 5 min for even mixing; 0.2 ml, 0.4 ml, 0.8 ml, 1.2 ml, 1.6 ml and 2 ml adriamycin hydrochloride stock solution were pipetted and placed in 5 ml volumetric flasks respectively, diluted with sterile water for injection to volume, and shook up. Using ultraviolet spectrophotometry, absorbance A values of adriamycin solution were determined at the series of concentration gradients at 480 nm, and linear regression was performed by taking absorbance A as a vertical coordinate and mass concentration C (mg·mL-1) of adriamycin as horizontal coordinate to obtain an equation: A=0.0178C+0.0284, R2=0.9994 (n=3).\n1 mL PAC nanosuspension (prepared according to a preferable solution) was precisely pipetted and placed in a 50 mL volumetric flask (concentration of the PAC nanosuspension was 7.76 mg/mL), diluted with sterile water for injection to volume and shook up, and then proper amount was pipetted to determine absorbance at 480 nm so as to obtain adriamycin concentration Cx with the standard curve. Drug loading rate of the PAC=(Cx/7.76)*100%. […]"}}}
{"substance": "pectin-adriamycin conjugate [PAC]", "values": [{"measurement": "solubility", "setting": "[1]", "result": "insoluble"}, {"measurement": "drug loading rate", "setting": "[2]", "result": 25.8, "unit": "%"}]}
